# Measured values taken from doi:10.1101/2025.01.09.632085.
# Biological target: thrombin (UniProt P00734;P00734 328-363;364-622)
# Experiment: BLI
binder,measurement,value
GGTTGGTGTGGTTGG (structured_DNA) [HD1],Kd,32 ± 4 nM
